# Test results reported in US20260266828A1, “BIOMARKERS FOR PREDICTING CANCER TREATMENT EFFICACY” (Arcus Biosciences, Inc., priority 2023, published 2026).
# B1: zimberelimab (antibody, chains of the INN, looked up, V domains shown)
# VH: QLQLQESGPGLVKPSETLTLTCTVSADSISSTTYYWVWIRQPPGKGLEWIGSISYSGSTYYNPSLKSRVTVSVDTSKNQFSLKLNSVAATDTALYYCARHLGYNGRYLPFDYWGQGTLVTVSS
# VL: QSALTQPASVSGSPGQSITISCTGTSSDVGFYNYVSWYQQHPGKAPELMIYDVSNRPSGVSDRFSGSKSGNTASLTISGLQAEDEADYYCSSYTSISTWVFGGGTKLTVL
# notes: zimberelimab monotherapy 360 mg IV Q3W; anti-PD-1 antibody
# Tested on: CXCL9, CXCL10, CXCL11, IL-12B, IL-18, IL-6, IFNγ, TNFα
# Experiment: Serum cytokines, Meso Scale Discovery multiplex assays, baseline and C2D1
# Format: in vivo, human
# Protocol: Soluble biomarkers were retrospectively analyzed in baseline and on-treatment peripheral blood derived samples obtained from a subset of subjects enrolled in the clinical trial of Example 2. Baseline samples were obtained on day 1 of cycle 1 (CID1), prior to administration of any study drugs. On-treatment samples were obtained on day 1 of cycle 2 (C2D1), prior to administration of study drugs on that day.
# Blood collected in serum separator tubes was allowed to clot for 30-60 minutes before centrifugation at 1300 g for 10 minutes to separate the serum. Serum was isolated and stored at −80° C. until cytokine analysis. Serum cytokines were quantified in multiplex assays using the Meso Scale Discovery platform following the manufacturer's protocol. Briefly, plates were coated with biotinylated capture antibodies specific to the analyte of interest bound to linkers specific to unique spots in each well of a 96-well plate. Serum samples, assessed in duplicate, were diluted 8-fold to quantify CXCL9, CXCL10, CXCL11 and IL-18 in a U-plex assay, diluted 10-fold to quantify IL-12B in a U-plex assay, and diluted 5-fold to quantify IFNγ, TNFα and IL-6 in the S-plex assay. Samples were incubated on linker/capture antibody-coated plates, followed by detection with a sulfo-tag-labelled antibody for the U-plex assays and a TURBO-tag-labelled antibody for the S-plex assay. For the S-plex assay, additional steps incorporated in the manufacturer's protocol to amplify signal with enhance solution and detection solution were followed. Following addition of read buffer, the electrochemiluminescent signal was measured on a MESO Sector S 600 instrument. Between each step of the protocol plates were washed with 0.05% Tween-PBS. A standard curve was generated for each plate using a 4-parameter logistic fit with 1/y^2 weighting. Cytokine concentrations in samples were interpolated using the standard curve, allowing quantification of the analyte of interest. Fold change from baseline was calculated as a ratio of the cytokine concentration at C2D1 over the cytokine concentration at baseline. A linear mixed model performed on log transformed raw cytokine values with baseline values as covariates assessed the difference in cytokine levels over time and between treatment groups.
molecule,measurement,setting,value
B1,"CXCL9, Fold change, median",C2D1 over baseline,2.4
same,"CXCL10, Fold change, median",C2D1 over baseline,1.7
same,"CXCL11, Fold change, median",C2D1 over baseline,1.6
same,"IFNγ, Fold change, median",C2D1 over baseline,1.6
same,"IL-6, Fold change, median",C2D1 over baseline,1.0
same,"IL-12B, Fold change, median",C2D1 over baseline,1.5
same,"IL-18, Fold change, median",C2D1 over baseline,1.2
same,"TNFα, Fold change, median",C2D1 over baseline,1.2
same,"CXCL9, C2D1, median","day 1 of cycle 2, pre-dose",621 pg/mL
same,"CXCL10, C2D1, median","day 1 of cycle 2, pre-dose",639 pg/mL
same,"CXCL11, C2D1, median","day 1 of cycle 2, pre-dose",172 pg/mL
same,"IFNγ, C2D1, median","day 1 of cycle 2, pre-dose",1100 fg/mL
same,"IL-6, C2D1, median","day 1 of cycle 2, pre-dose",14385 fg/mL
same,"IL-12B, C2D1, median","day 1 of cycle 2, pre-dose",284 pg/mL
same,"IL-18, C2D1, median","day 1 of cycle 2, pre-dose",779 pg/mL
same,"TNFα, C2D1, median","day 1 of cycle 2, pre-dose",1336 fg/mL
